Patent US20230048553A1 (AbbVie / Abbott, published 2023)

Legend:
[1] = target: T1, human CCR8 (chemokine receptor 8) (human, UniProt P51685 1-355); test: cell-based or functional assay
cynomolgus CCR8 [2] = target: T2, cynomolgus CCR8 (cynomolgus monkey, UniProt G7NYJ2 1-355); test: cell-based or functional assay
cynomolgus CCR8 [3] = target: T2, cynomolgus CCR8; test: flow cytometry on cyCCR8 Jurkat cells
Procedure: (§1) The candidate molecules were assessed for binding capacity using flow cytometry through known methods against overexpressed huCCR8 or cyCCR8 on the surface of Jurkat cells. The exemplary antibodies were tested for their ability to self-interact, bind to huCCR8 and cyCCR8, capacity for ADCC using the reporter bioassay, and non-specific binding to HEK293 cells. […] The AC-SINS self-interaction scores for each candidate was <1. At 100 μg/mL, non-specific binding maximums ranged from 97 to 144 GMFI. At 10 μg/mL, non-specific binding maximums ranged from 94-111 GFMI. At 1 μg/mL, non-specific binding maximums ranged from 87-102 GMFI.

[4] = target: T1, human CCR8 (chemokine receptor 8); test: flow cytometry on huCCR8 Jurkat cells
Procedure: as §1

mouse CCR8 = target: T3, mouse CCR8 (mouse, UniProt P56484 1-353, limits assumed); test: not told
T3 sequence (looked up): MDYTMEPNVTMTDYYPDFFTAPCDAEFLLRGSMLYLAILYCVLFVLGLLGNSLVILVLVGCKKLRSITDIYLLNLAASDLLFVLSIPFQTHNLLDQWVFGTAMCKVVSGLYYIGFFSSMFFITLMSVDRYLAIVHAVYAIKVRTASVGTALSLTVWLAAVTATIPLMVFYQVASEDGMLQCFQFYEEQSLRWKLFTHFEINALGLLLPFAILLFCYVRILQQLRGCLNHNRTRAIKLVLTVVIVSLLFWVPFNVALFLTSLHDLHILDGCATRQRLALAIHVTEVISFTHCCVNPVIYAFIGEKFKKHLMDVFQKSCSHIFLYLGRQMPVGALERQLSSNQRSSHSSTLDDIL

rat CCR8 = target: T4, rat CCR8 (rat, UniProt D4ADE0 1-353); test: not told
T4 sequence: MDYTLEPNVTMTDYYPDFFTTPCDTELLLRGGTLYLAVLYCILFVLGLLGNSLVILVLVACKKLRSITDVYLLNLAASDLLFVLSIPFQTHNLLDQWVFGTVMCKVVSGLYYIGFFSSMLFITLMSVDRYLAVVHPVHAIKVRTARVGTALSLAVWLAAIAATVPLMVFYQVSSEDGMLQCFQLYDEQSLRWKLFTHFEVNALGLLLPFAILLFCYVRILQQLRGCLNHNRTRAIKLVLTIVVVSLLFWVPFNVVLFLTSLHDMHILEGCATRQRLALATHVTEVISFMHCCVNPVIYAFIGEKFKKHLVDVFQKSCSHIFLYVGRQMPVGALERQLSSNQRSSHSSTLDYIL

rabbit CCR8 = target: T5, rabbit CCR8 (rabbit, UniProt G1T2B2 1-355); test: not told
T5 sequence: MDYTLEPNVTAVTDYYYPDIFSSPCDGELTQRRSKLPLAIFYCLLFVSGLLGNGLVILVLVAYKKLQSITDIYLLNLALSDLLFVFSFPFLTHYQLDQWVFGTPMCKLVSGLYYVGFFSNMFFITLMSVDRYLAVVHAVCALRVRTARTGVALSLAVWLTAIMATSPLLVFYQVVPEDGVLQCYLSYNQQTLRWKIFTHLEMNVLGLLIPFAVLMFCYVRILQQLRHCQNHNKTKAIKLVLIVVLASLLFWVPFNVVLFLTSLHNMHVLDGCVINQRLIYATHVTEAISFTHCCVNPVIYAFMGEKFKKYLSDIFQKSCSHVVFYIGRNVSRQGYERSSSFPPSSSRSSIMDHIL

[5] = target: T1, human CCR8 (chemokine receptor 8); test: cell-based or functional assay; remark: listed apart in the source

T2 sequence (G7NYJ2 entry or part of it): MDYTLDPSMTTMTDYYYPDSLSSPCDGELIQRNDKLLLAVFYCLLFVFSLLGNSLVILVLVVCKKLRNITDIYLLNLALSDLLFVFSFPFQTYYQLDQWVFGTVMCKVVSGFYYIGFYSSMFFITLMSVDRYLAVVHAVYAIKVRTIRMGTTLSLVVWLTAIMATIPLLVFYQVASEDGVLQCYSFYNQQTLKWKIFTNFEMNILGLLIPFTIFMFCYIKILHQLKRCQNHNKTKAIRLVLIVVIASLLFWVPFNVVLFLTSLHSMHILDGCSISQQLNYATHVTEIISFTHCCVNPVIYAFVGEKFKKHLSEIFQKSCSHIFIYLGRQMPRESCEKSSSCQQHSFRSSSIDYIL
T1 sequence (P51685 whole entry): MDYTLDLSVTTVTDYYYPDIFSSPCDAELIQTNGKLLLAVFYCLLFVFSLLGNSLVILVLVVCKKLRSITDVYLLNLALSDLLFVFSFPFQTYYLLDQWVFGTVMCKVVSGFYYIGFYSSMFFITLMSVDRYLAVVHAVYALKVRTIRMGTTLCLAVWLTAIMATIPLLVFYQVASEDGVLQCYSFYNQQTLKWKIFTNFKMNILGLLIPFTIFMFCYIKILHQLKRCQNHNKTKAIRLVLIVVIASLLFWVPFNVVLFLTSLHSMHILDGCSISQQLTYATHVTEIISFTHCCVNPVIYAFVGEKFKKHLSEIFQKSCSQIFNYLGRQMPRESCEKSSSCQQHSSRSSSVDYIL

Row | Binder | ADCC reporter huCCR8 EC50 [1] [nM] | ADCC reporter huCCR8 Max Fold Induction [1] [fold] | ADCC reporter cyCCR8 EC50 (cynomolgus CCR8 [2]) [nM] | ADCC reporter cyCCR8 Max Fold Induction (cynomolgus CCR8 [2]) [fold] | EC50 (cynomolgus CCR8 [3]) [nM] | EC50 [4] [nM] | binding result (mouse CCR8) | binding result (rat CCR8) | binding result (rabbit CCR8) | EC50 of CCL1 blockade (CCR8 beta-arrestin reporter assay) [5] [µg/mL]
1 | AC-264700 (antibody, V domains shown) VH: EVQLVESGGGLVQPGGSLKLSCAASGFIFSNAVMYWVRQASGKGLEWVARIKTKFNNYATYYADSVKGRFTISRDDSKNMVYLQMNSLKTEDTAVYYCTAGDRNKPFAYWGQGTLVTVSS VL: ETVVTQSPATLSLSPGERATLSCRASDSVITLLHWFQQKPGQAPRLLIHGASNLESRVPARFSGSGSGTDFTLTISSLEPEDFATYFCQQSWNDPYTFGQGTKLEIKR | 0.12 | 12.8 | 0.79 | 12 | 5.27 | 2.33 |  |  |  | 
2 | AC-277357 (fucosylated) (antibody, human IgG1, kappa, V domains shown, AC-264700 with LCDR1 D27→T. Human IgG1 kappa) VH: EVQLVESGGGLVQPGGSLKLSCAASGFIFSNAVMYWVRQASGKGLEWVARIKTKFNNYATYYADAVKGRFTISRDDSKNMVYLQMNSLKTEDTAVYYCTAGDRNKPFAYWGQGTLVTVSS VL: ETVVTQSPATLSLSPGERATLSCRASTSVITLLHWFQQKPGQAPRLLIHGASNLESRVPARFSGSGSGTDFTLTISSLEPEDFATYFCQQSWNDPYTFGQGTKLEIKR | 0.1 | 15.7 | 0.75 | 12.3 | 2.37 | 1.51 |  |  |  | 
3 | AC-277483 (antibody, V domains shown) VH: EVQLVESGGGLVQPGGSLKLSCAASGFIFSNAVMYWVRQASGKGLEWVARIKTKFNNYATYYADAVKGRFTISRDDSKNMVYLQMNSLKTEDTAVYYCTAGDRNKPFAYWGQGTLVTVSS VL: ETVVTQSPATLSLSPGERATLSCRASDAVITLLHWFQQKPGQAPRLLIHGASNLESRVPARFSGSGSGTDFTLTISSLEPEDFATYFCQQSWNDPYTFGQGTKLEIKR | 0.07 | 13.6 | 1.19 | 10 | 5.93 | 2.9 |  |  |  | 
4 | AC-277371 (antibody, V domains shown) VH: EVQLVESGGGLVQPGGSLKLSCAASGFIFSNAVMYWVRQASGKGLEWVARIKTKFNNYATYYADAVKGRFTISRDDSKNMVYLQMNSLKTEDTAVYYCTAGDRNKPFAYWGQGTLVTVSS VL: ETVVTQSPATLSLSPGERATLSCRASGSVITLLHWFQQKPGQAPRLLIHGASNLESRVPARFSGSGSGTDFTLTISSLEPEDFATYFCQQSWNDPYTFGQGTKLEIKR | 0.05 | 12.7 | 0.57 | 11.7 | 4.83 | 1.87 |  |  |  | 
5 | ABBV-514 (antibody, human IgG1, kappa, V domains shown, afucosylated N-glycan at ASN-300 (EU: ASN-297), Afucosylated humanized IgG1 kappa made in cells expressing Pseudomonas RMD) VH: EVQLVESGGGLVQPGGSLKLSCAASGFIFSNAVMYWVRQASGKGLEWVARIKTKFNNYATYYADAVKGRFTISRDDSKNMVYLQMNSLKTEDTAVYYCTAGDRNKPFAYWGQGTLVTVSS VL: ETVVTQSPATLSLSPGERATLSCRASTSVITLLHWFQQKPGQAPRLLIHGASNLESRVPARFSGSGSGTDFTLTISSLEPEDFATYFCQQSWNDPYTFGQGTKLEIKR |  |  |  |  |  |  | no binding | no binding | no binding | 23.1
